Data reported in patent publication US20210361653A1 (MAYO FOUNDATION FOR MEDICAL EDUCATION AND RESEARCH, published 2021).

What was measured:
BRD2 = target: T1, BRD2 (human, UniProt P25440 1-801); assay: co-immunoprecipitation, 293T (ectopic) and LNCaP (endogenous) cells
T1 construct: also called bromodomain containing 2; FLAG-BRD2
Experimental: (§1) To immunoprecipitate the ectopically expressed FLAG-tagged proteins, transfected cells were lysed 24 hours post-transfection in BC100 buffer. The whole-cell lysates were immunoprecipitated with the monoclonal anti-FLAG antibody-conjugated M2 agarose beads (Sigma-Aldrich) at 4° C. overnight. After three washes with lysis buffer, followed by two washes with BC100 buffer, the bound proteins were eluted using FLAG-Peptide (Sigma-Aldrich) prepared in BC100 for 3 hours at 4° C. The eluted protein sample was resolved by SDS-PAGE. To immunoprecipitate the endogenous proteins, cells were lysed with 1× cell lysis buffer (Cell Signaling Technology), and the lysate was centrifuged. The supernatant was precleared with protein AIG beads (Sigma-Aldrich) and incubated with the indicated antibody and protein A/G beads at 4° C. overnight. Beads were washed five times with lysis buffer and resuspended in sample buffer and analyzed by SDS-PAGE.
(§2) To identify new degradation substrates of SPOP, yeast two-hybrid screens using the full-length SPOP as bait were performed.

BRD3 = target: T2, BRD3 (human, UniProt Q15059 1-726); assay: as above
T2 construct: also called bromodomain containing 3; FLAG-BRD3
Experimental: as §1, §2

[1] = target: T3, BRD3 SBC motif-deleted mutant (human, UniProt Q15059 1-726, limits assumed); assay: co-IP with anti-FLAG antibody, 293T cells
T3 construct: Deletion mutant; also called FLAG-BRD3 mutant; not shown: FLAG tag

[2] = target: T4, BRD4 SBC motif-deleted mutant (human, UniProt O60885 1-1362, limits assumed); assay: co-IP with anti-FLAG antibody, 293T cells
T4 construct: Deletion mutant; also called FLAG-BRD4 mutant; not shown: FLAG tag

[3] = target: T5, BRD2 SBC motif-deleted mutant (human, UniProt P25440 1-801, limits assumed); assay: co-IP with anti-FLAG antibody, 293T cells
T5 construct: Deletion mutant; also called FLAG-BRD2 mutant; not shown: FLAG tag

B1: SPOP, wild-type (other, human, UniProt O43791 1-374, looked up)
chain: MSRVPSPPPPAEMSSGPVAESWCYTQIKVVKFSYMWTINNFSFCREEMGEVIKSSTFSSGANDKLKWCLRVNPKGLDEESKDYLSLYLLLVSCPKSEVRAKFKFSILNAKGEETKAMESQRAYRFVQGKDWGFKKFIRRDFLLDEANGLLPDDKLTLFCEVSVVQDSVNISGQNTMNMVKVPECRLADELGGLWENSRFTDCCLCVAGQEFQAHKAILAARSPVFSAMFEHEMEESKKNRVEINDVEPEVFKEMMCFIYTGKAPNLDKMADDLLAAADKYALERLKVMCEDALCSNLSVENAAEILILADLHSADQLKTQAVDFINYHASDVLETSGWKSMVVSHPHLVAEAYRSLASAQCPFLGPPRKRLKQS
notes: also called SPOP-WT; Myc-SPOP
Does B1 bind (BRD2)?
Result: binds

Does B1 bind (BRD3)?
Result: binds

Does B1 bind [1]?
Result: no binding

Does B1 bind [2]?
Result: no binding

Does B1 bind [3]?
Result: no binding
